Results: PMC13376213 (2026)
Values belong to the binder of their own block, whether it stands above or below them.

Experiments:
Assay in all cases: FP displacement
IRAG1 = molecular target: T1, IRAG1 (Homo sapiens (Human), UniProt Q9Y6F6)
T1 chain: TNSSGKMALNSPQPG

USP19 = molecular target: T2, USP19 (Homo sapiens (Human), UniProt O94966)
T2 chain: PFQPGRMALESQSPG

ROBO1 = molecular target: T3, ROBO1 (Homo sapiens (Human), UniProt Q9Y6N7)
T3 chain: AQSKTQLEVRPV

CEP192 = molecular target: T4, CEP192 (Homo sapiens (Human), UniProt Q8TEP8)
T4 chain: LQPSSKASLESTSDL

MFSD2B = molecular target: T5, MFSD2B (Homo sapiens (Human), UniProt A6NFX1)
T5 chain: DVVDDFQLQHRHGPG

CCDC88B = molecular target: T6, CCDC88B (Homo sapiens (Human), UniProt A6NC98)
T6 chain: QLEEELFQLRQGPAG

HIF1A = molecular target: T7, HIF1A (Homo sapiens (Human), UniProt Q16665)
T7 chain: PYIPMDDDFQLRSFDQLS

Kd (IRAG1): 7.86 µM | Kd (USP19): 40.6 µM | Kd (ROBO1): 14 µM | Kd (CEP192): 14.1 µM
B1: USP33 (protein)
chain: RNHCPHLDSVGEITKEDLIQKSLGTCQDCKVQGPNLWACLENRCSYVGCGESQVDHSTIHSQETKHYLTVNLTTLRVWCYACSKEVFLDRKLGTQ

Kd (MFSD2B): 0.75 µM | Kd (CCDC88B): 40.1 µM | Kd (HIF1A): 1.5 µM
B2: USP33 (protein)
chain: HLYICHTCQIEAEKIEKRRKTELEIFIRLNRAFQKEDSPATFYCISMQWFREWESFVKGKDGDPPGPIDNTKIAVTKCGNVMLRQGADSGQISEETWNFLQSIYGGGPEVILRPPV
